{"source": "patent US20040110170A1", "about": "“Cloning and characterization of calcitonin gene related peptide receptors” (priority 2002, published 2004)", "key": {"JPr-CGRP receptor": {"biological_target": "T1, JPr-CGRP receptor (Rattus norvegicus, UniProt O89039)", "T1 construct": "expressed in transfected cells; pCDL-Srα vector)", "T1 sequence (O89039 whole entry)": "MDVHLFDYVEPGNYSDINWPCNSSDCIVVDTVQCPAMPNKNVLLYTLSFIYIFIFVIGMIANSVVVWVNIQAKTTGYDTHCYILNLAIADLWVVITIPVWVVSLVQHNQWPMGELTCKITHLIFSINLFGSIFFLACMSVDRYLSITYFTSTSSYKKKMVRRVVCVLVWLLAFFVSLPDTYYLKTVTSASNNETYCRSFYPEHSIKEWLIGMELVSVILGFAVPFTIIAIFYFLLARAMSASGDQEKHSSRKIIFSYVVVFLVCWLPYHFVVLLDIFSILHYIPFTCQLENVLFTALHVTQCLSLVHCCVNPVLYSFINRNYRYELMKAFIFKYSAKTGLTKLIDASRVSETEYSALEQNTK", "test": "Adenylate Cyclase Stimulation assay (cAMP), NIH/3T3 cells stably expressing JPr-CGRP receptor", "format": "cell-based", "conditions": "assay not specified", "method": "The cells were washed with 1 ml of a nutrient deficient DMEM solution (Gibco-BRL, Gaithersburg, Md.) to remove excess radioisotope and incubated for 10 minutes (37° Celsius). […] Peptide was added in 5 μL aliquots to 21 of the 24 wells with three receiving no peptide to serve as a baseline for stimulation. The remaining 21 wells were incubated at 37° Celsius with increasing concentrations of the indicated peptide and the response was measured."}, "[1]": {"biological_target": "Skb-CGRP receptor (previously reported human CGRP type 1 receptor, Skb-CGRP-R) (human) (UniProt Q16602)", "sequence (Q16602 23-461)": "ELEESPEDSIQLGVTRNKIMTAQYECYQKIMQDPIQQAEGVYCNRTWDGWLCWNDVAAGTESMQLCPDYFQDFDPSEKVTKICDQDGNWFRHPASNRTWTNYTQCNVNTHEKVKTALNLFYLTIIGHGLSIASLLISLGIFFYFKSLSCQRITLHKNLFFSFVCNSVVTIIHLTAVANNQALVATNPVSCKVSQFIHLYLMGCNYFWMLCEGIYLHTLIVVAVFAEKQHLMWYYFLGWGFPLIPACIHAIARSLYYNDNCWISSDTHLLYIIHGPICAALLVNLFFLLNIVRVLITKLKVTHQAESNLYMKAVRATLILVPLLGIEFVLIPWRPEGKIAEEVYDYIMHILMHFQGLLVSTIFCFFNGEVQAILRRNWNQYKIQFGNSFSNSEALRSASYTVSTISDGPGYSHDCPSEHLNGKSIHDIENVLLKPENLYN", "test": "Radioligand binding inhibition; unlabelled CGRP against 50 pM 125I-CGRP on stably transfected NIH/3T3 cells"}, "[2]": {"biological_target": "JPr-CGRP receptor (rat CGRP receptor, JPr-CGRP-R) (rat) (UniProt O89039)", "sequence (O89039 whole entry)": "as the sequence (O89039 whole entry) above", "test": "Radioligand binding inhibition; unlabelled CGRP against 50 pM 125I-CGRP on stably transfected NIH/3T3 cells"}, "[3]": {"system": "vector control transfected HEK 293 cells", "conditions": "cited from earlier work"}}, "note": "Ends that are not written are not given here."}
{"substance": "Adrenomedullin: peptide related to CGRP", "values": [{"measurement": "response of the JPr-CGRP receptor to related peptides", "setting": "JPr-CGRP receptor", "value": "shows response"}]}
{"substance": "Amylin: peptide related to CGRP, tested on the receptor (KCNTATCATQRLANFLVHSSNNFGAILSSTNVGSNTY; not fully specified (C-terminus, bridges); cysteine pairing not given here; UniProt P10997 34-70, looked up)", "values": [{"measurement": "response of the JPr-CGRP receptor to related peptides", "setting": "JPr-CGRP receptor", "value": "shows response"}]}
{"substance": "Calcitonin", "values": [{"measurement": "response of the JPr-CGRP receptor to related peptides", "setting": "JPr-CGRP receptor", "value": "shows response"}]}
{"substance": "Calcitonin Gene Related Peptide (CGRP)", "values": [{"measurement": "IC50", "setting": "[1]", "value": 501, "unit": "pM"}, {"measurement": "IC50", "setting": "[2]", "value": 39.8, "unit": "pM"}]}
{"substance": "human Calcitonin: human Calcitonin, has cross reactivity with the CGRP receptor (CGNLSTCMLGTYTQDFNKFHTFPQTAIGVGAP; not fully specified (C-terminus, bridges); ends and bridges not checked; UniProt P01258 85-116, looked up)", "values": [{"measurement": "cAMP accumulation as % of the maximum cAMP induced by CGRP in Skb-CGRP-R transfected cells", "setting": "[3]", "value": 75, "unit": "%"}]}
